pKd: −log10 of the molar value.
Legend:
[1] = target: MyrNCS-1 His6 (N-terminally myristoylated NCS-1 with a carboxyl terminal His6-tag) (UniProt P62166); assay: AUC
[2] = target: MyrNCS-1 His6 (N-terminally myristoylated NCS-1 with a carboxyl terminal His6-tag) (UniProt P62166); assay: SEC-MALS
[3] = target: MyrNCS-1 His6 (N-terminally myristoylated NCS-1 with a carboxyl terminal His6-tag) (UniProt P62166); assay: micro-batch multi-angle laser light scattering

Substance “MyrNCS-1 His6 (N-terminally myristoylated NCS-1 with a carboxyl terminal His6-tag) (from UniProt P62166 1-190) (natural protein)” has a pKd [1] of 5.70, a stoichiometry N [2] of 2 and a pKd [3] of 5.00.
